# In patent US20140213513A1 (Sanofi, priority 2012, published 2014):
# *1 amine or outer side, *2 acyl side, *3 side chain or, on linkers, in order; H or OH if unused. Where no end group is shown, it is not given here. Side-chain parts run from the residue outwards. [ ]: non-standard residue; d: D form. The star is where a group is joined. γGlu = O=C(O)[C@H](CCC(=O)[*:2])N[*:1]; Palmitoyl = CCCCCCCCCCCCCCCC(=O)*; Aib = CC(C)(N)C(=O)O
# T1: human GIP receptor (human, UniProt P48546 22-466)
# T1 sequence (looked up): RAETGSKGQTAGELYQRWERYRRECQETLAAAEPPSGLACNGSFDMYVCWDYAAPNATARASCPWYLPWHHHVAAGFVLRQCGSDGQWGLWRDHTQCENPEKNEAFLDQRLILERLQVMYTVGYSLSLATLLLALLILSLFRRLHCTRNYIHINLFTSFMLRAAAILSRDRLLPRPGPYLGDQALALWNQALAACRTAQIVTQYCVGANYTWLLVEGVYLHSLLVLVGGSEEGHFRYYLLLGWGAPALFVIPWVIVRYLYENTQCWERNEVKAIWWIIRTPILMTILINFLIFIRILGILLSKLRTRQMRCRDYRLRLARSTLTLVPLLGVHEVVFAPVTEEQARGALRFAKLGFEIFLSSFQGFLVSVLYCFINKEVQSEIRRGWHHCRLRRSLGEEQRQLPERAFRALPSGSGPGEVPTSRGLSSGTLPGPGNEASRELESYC
# Tests used:
# Test in all cases: cell-based or functional assay
# human GLP-1 receptor = human GLP-1 receptor (human, UniProt P43220 24-463)
# human GIP receptor = biological target: T1, human GIP receptor
# human glucagon receptor = human glucagon receptor (human, UniProt P47871 26-477)
# Sequence of human glucagon receptor (P47871 26-477): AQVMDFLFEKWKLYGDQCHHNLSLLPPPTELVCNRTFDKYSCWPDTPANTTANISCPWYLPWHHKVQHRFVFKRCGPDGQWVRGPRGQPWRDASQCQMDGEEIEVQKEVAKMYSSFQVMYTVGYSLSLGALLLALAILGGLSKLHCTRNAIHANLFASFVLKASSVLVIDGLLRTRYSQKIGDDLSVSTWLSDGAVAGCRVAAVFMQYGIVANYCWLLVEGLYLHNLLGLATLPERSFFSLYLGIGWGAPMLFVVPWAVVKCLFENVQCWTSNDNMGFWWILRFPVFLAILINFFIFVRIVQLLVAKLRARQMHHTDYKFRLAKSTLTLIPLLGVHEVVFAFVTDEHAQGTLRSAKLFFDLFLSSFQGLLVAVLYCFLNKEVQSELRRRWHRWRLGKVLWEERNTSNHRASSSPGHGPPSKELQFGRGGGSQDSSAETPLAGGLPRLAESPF
Binder,EC50 hGLP-1 R (human GLP-1 receptor),EC50 hGIP R (human GIP receptor),EC50 hGLUC R (human glucagon receptor)
Y[Aib]QGTFTSDLSIQK([γGlu-Palmitoyl])DSIAAQDFIEWLKAGGPSSGAPPPS-NH2 (N-terminus assumed; SMILES CCCCCCCCCCCCCCCC(=O)N[C@@H](CCC(=O)NCCCC[C@H](NC(=O)[C@H](CCC(N)=O)NC(=O)[C@@H](NC(=O)[C@H](CO)NC(=O)[C@H](CC(C)C)NC(=O)[C@H](CC(=O)O)NC(=O)[C@H](CO)NC(=O)[C@@H](NC(=O)[C@H](Cc1ccccc1)NC(=O)[C@@H](NC(=O)CNC(=O)[C@H](CCC(N)=O)NC(=O)C(C)(C)NC(=O)[C@@H](N)Cc1ccc(O)cc1)[C@@H](C)O)[C@@H](C)O)[C@@H](C)CC)C(=O)N[C@@H](CC(=O)O)C(=O)N[C@@H](CO)C(=O)N[C@H](C(=O)N[C@@H](C)C(=O)N[C@@H](C)C(=O)N[C@@H](CCC(N)=O)C(=O)N[C@@H](CC(=O)O)C(=O)N[C@@H](Cc1ccccc1)C(=O)N[C@H](C(=O)N[C@@H](CCC(=O)O)C(=O)N[C@@H](Cc1c[nH]c2ccccc12)C(=O)N[C@@H](CC(C)C)C(=O)N[C@@H](CCCCN)C(=O)N[C@@H](C)C(=O)NCC(=O)NCC(=O)N1CCC[C@H]1C(=O)N[C@@H](CO)C(=O)N[C@@H](CO)C(=O)NCC(=O)N[C@@H](C)C(=O)N1CCC[C@H]1C(=O)N1CCC[C@H]1C(=O)N1CCC[C@H]1C(=O)N[C@@H](CO)C(N)=O)[C@@H](C)CC)[C@@H](C)CC)C(=O)O) [exendin-4 peptide analogue SEQ ID NO: 49],0.0172 nM,0.0456 nM,0.195 nM
Y[Aib]QGTFTSDLSIQK([γGlu-Palmitoyl])DSRAVQDFIEWLKAGGPSSGAPPPS-NH2 (N-terminus assumed; SMILES CCCCCCCCCCCCCCCC(=O)N[C@@H](CCC(=O)NCCCC[C@H](NC(=O)[C@H](CCC(N)=O)NC(=O)[C@@H](NC(=O)[C@H](CO)NC(=O)[C@H](CC(C)C)NC(=O)[C@H](CC(=O)O)NC(=O)[C@H](CO)NC(=O)[C@@H](NC(=O)[C@H](Cc1ccccc1)NC(=O)[C@@H](NC(=O)CNC(=O)[C@H](CCC(N)=O)NC(=O)C(C)(C)NC(=O)[C@@H](N)Cc1ccc(O)cc1)[C@@H](C)O)[C@@H](C)O)[C@@H](C)CC)C(=O)N[C@@H](CC(=O)O)C(=O)N[C@@H](CO)C(=O)N[C@@H](CCCNC(=N)N)C(=O)N[C@@H](C)C(=O)N[C@H](C(=O)N[C@@H](CCC(N)=O)C(=O)N[C@@H](CC(=O)O)C(=O)N[C@@H](Cc1ccccc1)C(=O)N[C@H](C(=O)N[C@@H](CCC(=O)O)C(=O)N[C@@H](Cc1c[nH]c2ccccc12)C(=O)N[C@@H](CC(C)C)C(=O)N[C@@H](CCCCN)C(=O)N[C@@H](C)C(=O)NCC(=O)NCC(=O)N1CCC[C@H]1C(=O)N[C@@H](CO)C(=O)N[C@@H](CO)C(=O)NCC(=O)N[C@@H](C)C(=O)N1CCC[C@H]1C(=O)N1CCC[C@H]1C(=O)N1CCC[C@H]1C(=O)N[C@@H](CO)C(N)=O)[C@@H](C)CC)C(C)C)C(=O)O) [exendin-4 peptide analogue SEQ ID NO: 50],0.01 nM,0.0479 nM,1.72 nM
Y[Aib]QGTFTSDLSIQK([γGlu-Palmitoyl])DSRAQQDFIEWLKAGGPSSGAPPPS-NH2 (N-terminus assumed; SMILES CCCCCCCCCCCCCCCC(=O)N[C@@H](CCC(=O)NCCCC[C@H](NC(=O)[C@H](CCC(N)=O)NC(=O)[C@@H](NC(=O)[C@H](CO)NC(=O)[C@H](CC(C)C)NC(=O)[C@H](CC(=O)O)NC(=O)[C@H](CO)NC(=O)[C@@H](NC(=O)[C@H](Cc1ccccc1)NC(=O)[C@@H](NC(=O)CNC(=O)[C@H](CCC(N)=O)NC(=O)C(C)(C)NC(=O)[C@@H](N)Cc1ccc(O)cc1)[C@@H](C)O)[C@@H](C)O)[C@@H](C)CC)C(=O)N[C@@H](CC(=O)O)C(=O)N[C@@H](CO)C(=O)N[C@@H](CCCNC(=N)N)C(=O)N[C@@H](C)C(=O)N[C@@H](CCC(N)=O)C(=O)N[C@@H](CCC(N)=O)C(=O)N[C@@H](CC(=O)O)C(=O)N[C@@H](Cc1ccccc1)C(=O)N[C@H](C(=O)N[C@@H](CCC(=O)O)C(=O)N[C@@H](Cc1c[nH]c2ccccc12)C(=O)N[C@@H](CC(C)C)C(=O)N[C@@H](CCCCN)C(=O)N[C@@H](C)C(=O)NCC(=O)NCC(=O)N1CCC[C@H]1C(=O)N[C@@H](CO)C(=O)N[C@@H](CO)C(=O)NCC(=O)N[C@@H](C)C(=O)N1CCC[C@H]1C(=O)N1CCC[C@H]1C(=O)N1CCC[C@H]1C(=O)N[C@@H](CO)C(N)=O)[C@@H](C)CC)C(=O)O) [exendin-4 peptide analogue SEQ ID NO: 51],0.0042 nM,0.0063 nM,0.571 nM
Y[Aib]QGTFTSDLSIQK([γGlu-Palmitoyl])EKYAA[Aib]EFIEWLKNTGPSSGAPPPS-NH2 (N-terminus assumed; SMILES CCCCCCCCCCCCCCCC(=O)N[C@@H](CCC(=O)NCCCC[C@H](NC(=O)[C@H](CCC(N)=O)NC(=O)[C@@H](NC(=O)[C@H](CO)NC(=O)[C@H](CC(C)C)NC(=O)[C@H](CC(=O)O)NC(=O)[C@H](CO)NC(=O)[C@@H](NC(=O)[C@H](Cc1ccccc1)NC(=O)[C@@H](NC(=O)CNC(=O)[C@H](CCC(N)=O)NC(=O)C(C)(C)NC(=O)[C@@H](N)Cc1ccc(O)cc1)[C@@H](C)O)[C@@H](C)O)[C@@H](C)CC)C(=O)N[C@@H](CCC(=O)O)C(=O)N[C@@H](CCCCN)C(=O)N[C@@H](Cc1ccc(O)cc1)C(=O)N[C@@H](C)C(=O)N[C@@H](C)C(=O)NC(C)(C)C(=O)N[C@@H](CCC(=O)O)C(=O)N[C@@H](Cc1ccccc1)C(=O)N[C@H](C(=O)N[C@@H](CCC(=O)O)C(=O)N[C@@H](Cc1c[nH]c2ccccc12)C(=O)N[C@@H](CC(C)C)C(=O)N[C@@H](CCCCN)C(=O)N[C@@H](CC(N)=O)C(=O)N[C@H](C(=O)NCC(=O)N1CCC[C@H]1C(=O)N[C@@H](CO)C(=O)N[C@@H](CO)C(=O)NCC(=O)N[C@@H](C)C(=O)N1CCC[C@H]1C(=O)N1CCC[C@H]1C(=O)N1CCC[C@H]1C(=O)N[C@@H](CO)C(N)=O)[C@@H](C)O)[C@@H](C)CC)C(=O)O) [exendin-4 peptide analogue SEQ ID NO: 10],0.0052 nM,0.0144 nM,0.667 nM
Y[Aib]QGTFTSDLSIQK([γGlu-Palmitoyl])DSRRAQDFIEWLKAGGPSSGAPPPS-NH2 (N-terminus assumed; SMILES CCCCCCCCCCCCCCCC(=O)N[C@@H](CCC(=O)NCCCC[C@H](NC(=O)[C@H](CCC(N)=O)NC(=O)[C@@H](NC(=O)[C@H](CO)NC(=O)[C@H](CC(C)C)NC(=O)[C@H](CC(=O)O)NC(=O)[C@H](CO)NC(=O)[C@@H](NC(=O)[C@H](Cc1ccccc1)NC(=O)[C@@H](NC(=O)CNC(=O)[C@H](CCC(N)=O)NC(=O)C(C)(C)NC(=O)[C@@H](N)Cc1ccc(O)cc1)[C@@H](C)O)[C@@H](C)O)[C@@H](C)CC)C(=O)N[C@@H](CC(=O)O)C(=O)N[C@@H](CO)C(=O)N[C@@H](CCCNC(=N)N)C(=O)N[C@@H](CCCNC(=N)N)C(=O)N[C@@H](C)C(=O)N[C@@H](CCC(N)=O)C(=O)N[C@@H](CC(=O)O)C(=O)N[C@@H](Cc1ccccc1)C(=O)N[C@H](C(=O)N[C@@H](CCC(=O)O)C(=O)N[C@@H](Cc1c[nH]c2ccccc12)C(=O)N[C@@H](CC(C)C)C(=O)N[C@@H](CCCCN)C(=O)N[C@@H](C)C(=O)NCC(=O)NCC(=O)N1CCC[C@H]1C(=O)N[C@@H](CO)C(=O)N[C@@H](CO)C(=O)NCC(=O)N[C@@H](C)C(=O)N1CCC[C@H]1C(=O)N1CCC[C@H]1C(=O)N1CCC[C@H]1C(=O)N[C@@H](CO)C(N)=O)[C@@H](C)CC)C(=O)O) [exendin-4 peptide analogue SEQ ID NO: 52],0.0256 nM,0.182 nM,0.0133 nM
Y[Aib]QGTFTSDLSIQK([γGlu-Palmitoyl])DKRRAQDFIEWLKAGGPSSGAPPPS-NH2 (N-terminus assumed; SMILES CCCCCCCCCCCCCCCC(=O)N[C@@H](CCC(=O)NCCCC[C@H](NC(=O)[C@H](CCC(N)=O)NC(=O)[C@@H](NC(=O)[C@H](CO)NC(=O)[C@H](CC(C)C)NC(=O)[C@H](CC(=O)O)NC(=O)[C@H](CO)NC(=O)[C@@H](NC(=O)[C@H](Cc1ccccc1)NC(=O)[C@@H](NC(=O)CNC(=O)[C@H](CCC(N)=O)NC(=O)C(C)(C)NC(=O)[C@@H](N)Cc1ccc(O)cc1)[C@@H](C)O)[C@@H](C)O)[C@@H](C)CC)C(=O)N[C@@H](CC(=O)O)C(=O)N[C@@H](CCCCN)C(=O)N[C@@H](CCCNC(=N)N)C(=O)N[C@@H](CCCNC(=N)N)C(=O)N[C@@H](C)C(=O)N[C@@H](CCC(N)=O)C(=O)N[C@@H](CC(=O)O)C(=O)N[C@@H](Cc1ccccc1)C(=O)N[C@H](C(=O)N[C@@H](CCC(=O)O)C(=O)N[C@@H](Cc1c[nH]c2ccccc12)C(=O)N[C@@H](CC(C)C)C(=O)N[C@@H](CCCCN)C(=O)N[C@@H](C)C(=O)NCC(=O)NCC(=O)N1CCC[C@H]1C(=O)N[C@@H](CO)C(=O)N[C@@H](CO)C(=O)NCC(=O)N[C@@H](C)C(=O)N1CCC[C@H]1C(=O)N1CCC[C@H]1C(=O)N1CCC[C@H]1C(=O)N[C@@H](CO)C(N)=O)[C@@H](C)CC)C(=O)O) [exendin-4 peptide analogue SEQ ID NO: 53],0.0136 nM,0.0932 nM,0.0079 nM
